Reference: the nanobody polyreactivity screen of Harvey et al. (2022)

Test: yeast display, Sf9 membrane polyspecificity reagent, FACS + sequencing; frameworks hold sequencing errors
In short: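 Genes from sorted yeast were amplified by colony PCR, read by MiSeq 2 × 250 sequencing and filtered on CDR length. These cells carried a synthetic nanobody library in Saccharomyces cerevisiae BJ5465 and were sorted by FACS into low and high (top ~1%) gates on anti-HA and streptavidin fluorescence. Polyreactivity is labelled according to the gate of origin.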

Which “polyreactivity (PSR sort gate)” value does the source give for “QVQLVESGGGLVQAGGSLRLSCAASGFIFYSYAMGWYRQAPGKERELVAAITYSGGSTYYADSVKGRFTISRDNAKNTVYLQMNSLKPEDTAVYYCADDYYHPGYIYEYWGQGTQVTVSS” here?
Its value is “low polyreactivity”.

For “QVQLVESGGGLVQAGGSLRLSCAASGFIFYSYAMRWYRQDPGQERELVAAISTSGGSSYYADSVKGRFTMSRDNAKNTVYLQMNSLKPEDTAVYYCATLSAFYPFAYDYWGQGTQVTVSS”, which “polyreactivity (PSR sort gate)” value is on record?
The value was “high polyreactivity”.

Which “polyreactivity (PSR sort gate)” value does the source give for “QVQLVESGGGLVQAGGSLRLSCAASGFIFYSYVMGWSRQAPGKERELVAAISRSGGSTYYADSVKGRFTISRDNAKNTVYLQMNSLKPEDTAVYYCAVDGISGTSYGEGDEYWGQGTQVTVSS” here?
Its value is “high polyreactivity”.

Which “polyreactivity (PSR sort gate)” value does the source give for “QVQLVESGGGLVQAGGSLRLSCAASGFIFYTYAMGWYRQAPGKERELVAAISWRGGRTYYADSVKGRFTISRDNAKNTVYLQMNSLKPEDTAVYYCNAVTRSGEYDYWGQGTQVTVSS” here?
Its value is “high polyreactivity”.

With “QVQLVESGGGLVQAGGSLRLSCAASGFIFYTYVMGWYRQAPGKERELVAAISGTGGRTYYADSVKGRFTISRDNAKNTVYLQMNSLKPEDTAVYYCAAVSRYATGGGYWGQGTQVTVSS” as the sequence, how does the “polyreactivity (PSR sort gate)” value read?
The value was “high polyreactivity”.

With “QVQLVESGGGLVQAGGSLRLSCAASGFIFYWYVMGWYRQAPGKERELVAGISKNGTNTYYADSVKGRFTISRDNAKNTVYLQMNSLKPEDTAVYYCAARGYIRSRHYLEGYWGQGTQVTVSS” as the sequence, how does the “polyreactivity (PSR sort gate)” value read?
The value was “high polyreactivity”.

For “QVQLVESGGGLVQAGGSLRLSCAASGFIFYYNAMGWYRQAPGKERELVATITSGGSTNYADSVKGRFTISRDNAKNTVYLQMNSLKPEDTAVYYCAAGHSWVYGYDYWGQGTQVTVSS”, which “polyreactivity (PSR sort gate)” value is on record?
The value was “low polyreactivity”.

With “QVQLVESGGGLVQAGGSLRLSCAASGFIFYYNARGWYRQAPGKERELVAGISWDGSTYYADSVKGRFTISRDNAKNTVYLQMNSLKPEDTAVYYCAAALLDDYFDLFIFGYWGQGTQVTVSS” as the sequence, how does the “polyreactivity (PSR sort gate)” value read?
The value was “low polyreactivity”.

With “QVQLVESGGGLVQAGGSLRLSCAASGFIFYYNTMGWYRQAPGKERELVASITWSGDTTYYADSVKGRFSISRDNAKNTVYLQMNSLIPEDTAVYYCAAVHYYPYRRYDYWGQGTQVTVSS” as the sequence, how does the “polyreactivity (PSR sort gate)” value read?
The value was “low polyreactivity”.

With “QVQLVESGGGLVQAGGSLRLSCAASGFIFYYYAMGWYIQAPGKERELVAAIDWDGDRTYYADSVKGRFTISRDNAKNTVYLQMNSLKPEDTAVYYCAAEWPVNFDYWGQGTQVTVSS” as the sequence, how does the “polyreactivity (PSR sort gate)” value read?
Its value is “low polyreactivity”.

With “QVQLVESGGGLVQAGGSLRLSCAASGFIFYYYAMGWYRPAPGKERELVAAISRTGGRTYYADSVKWRFTISRDNAKKTVYLQMNSLKPEDTAVYYCAADQGNRFDYWGQGTQVTVSS” as the sequence, how does the “polyreactivity (PSR sort gate)” value read?
The value was “high polyreactivity”.

With “QVQLVESGGGLVQAGGSLRLSCAASGFIFYYYAMGWYRQAPGKERELVAAINRRGGSTYYADSVKGRFTISRDNAKNTVYLQMNSLKPEDTAVYYCAATYDGTFDYWGQGTQVTVSS” as the sequence, how does the “polyreactivity (PSR sort gate)” value read?
Its value is “high polyreactivity”.

Which “polyreactivity (PSR sort gate)” value does the source give for “QVQLVESGGGLVQAGGSLRLSCAASGFIFYYYAMGWYRQAPGKERELVASISSSGGRTYYADSVKGRFTISRDNAKNTVYLQMNSLKPEDTAVYYCAARGPYGYDLLYYWGQGTQVTVSS” here?
Its value is “high polyreactivity”.

With “QVQLVESGGGLVQAGGSLRLSCAASGFIIARNAMGWYRQAPGKERELVAAISASGGRTYYADSVKGRFTISRDNAKNTVYLQMNSLKPEDTAVYYCAARRDGRSGSYNYWGQGTQVTVSS” as the sequence, how does the “polyreactivity (PSR sort gate)” value read?
Its value is “high polyreactivity”.

For “QVQLVESGGGLVQAGGSLRLSCAASGFIIDVYAMGWYRHAPGKERELVAAISRSGGSTYYADSVKGRFTISRDNAKNSVYLQMNSLKPEDTAVYYCNAPGVTRAYLVGYDYWGQGSQVTVSS”, which “polyreactivity (PSR sort gate)” value is on record?
Its value is “low polyreactivity”.

With “QVQLVESGGGLVQAGGSLRLSCAASGFIIGSNGMGWYRQAPGKERELVAAISKNGGTTYYADSVKGRVTISRDNANNTVYLLMNSLKPADTAVYYCAAYKAVPNYYYWGQGTQVTVSS” as the sequence, how does the “polyreactivity (PSR sort gate)” value read?
Its value is “high polyreactivity”.

With “QVQLVESGGGLVQAGGSLRLSCAASGFIIIGYFMGWYRQAPGKERELVAAITSSGGSTYYADSVKGRFTISRDNAKNTVYLQMNSLKPEDTAVYYCAARLYNSIYWGYYSWGPGTQVTVSS” as the sequence, how does the “polyreactivity (PSR sort gate)” value read?
Its value is “low polyreactivity”.

With “QVQLVESGGGLVQAGGSLRLSCAASGFIIKFYAMGWYRQAPGKERELVATITISSGTTYYADSVKGRFTISRDTAKNTVYLQMNSLKPEDTAVYYCAASTLPAWPYDGPAGPRYDYWGQGTQVTVSS” as the sequence, how does the “polyreactivity (PSR sort gate)” value read?
Its value is “low polyreactivity”.

Which “polyreactivity (PSR sort gate)” value does the source give for “QVQLVESGGGLVQAGGSLRLSCAASGFIIQGNAMGRYRQAPGKERELVAAISSSVSTYYADSVKGRFTISRDNAKNTVYLQMNSLKPEDTAVYYCNAGFPLSLWLGDYWGQGTQVTVSS” here?
The value was “low polyreactivity”.

Which “polyreactivity (PSR sort gate)” value does the source give for “QVQLVESGGGLVQAGGSLRLSCAASGFIIQYYAMGWYRQAPGKERELVAVISLSGGRTSYADSVKGRFTISRDNAKNTVYLQMNSLKPEDTAVYYCARRVWSASNDYWGQGTQVTVSS” here?
Its value is “high polyreactivity”.

For “QVQLVESGGGLVQAGGSLRLSCAASGFIIYFNAMGWYRQAPGKERELVAAISASGGRTYYADSVKGRFTISRDNAKNTVYLQMNSLKPEDTAVYYCAADIRGYDYWGQGTQVTVSS”, which “polyreactivity (PSR sort gate)” value is on record?
Its value is “high polyreactivity”.

With “QVQLVESGGGLVQAGGSLRLSCAASGFIIYRYAMGWYRQAPGKEREVVATISSRGGSTYYADSVKGRFTISRDNAKNTVYLQMNSLKPEDTAVYYCNVRTRVKTTQSYDRNNYYWGQGTQVTVSS” as the sequence, how does the “polyreactivity (PSR sort gate)” value read?
Its value is “high polyreactivity”.

With “QVQLVESGGGLVQAGGSLRLSCAASGFIIYSYAMGWYRQAPGKERELVAVISSRGGTTYYADSVKGRFTISRDNAKNTVYLQMNSLKPEDTAVYYCARDDYGTLVKLYVRCFNYWGQGTQVTVSS” as the sequence, how does the “polyreactivity (PSR sort gate)” value read?
Its value is “low polyreactivity”.

Which “polyreactivity (PSR sort gate)” value does the source give for “QVQLVESGGGLVQAGGSLRLSCAASGFILAGYAMGWSRQAPGKERELVAAINSRGTRTYYADSVKGRFTISRDNAKNTVYLQMNSLKPEDTAVYYCAVHVWGTYGSWEYYYWGQGTQVTVSS” here?
Its value is “high polyreactivity”.

Which “polyreactivity (PSR sort gate)” value does the source give for “QVQLVESGGGLVQAGGSLRLSCAASGFILAGYAMGWYRQAPGKERELVAAINSRGTRTYYADSVKGRFTISRDNAKNTVYLQMNSLKPEDTAVYYCAVHVWGTYGSWEYYYWGQGTQVTVSS” here?
The value was “high polyreactivity”.

With “QVQLVESGGGLVQAGGSLRLSCAASGFILDNYAMGWYRQAPGKERELVAAISGSGGSTYYADSVKGRFTISRDNAKNTVYLQMNSLKPEDTAVYYCAAYSIHYGYDAYDYWGQGTQVTVSS” as the sequence, how does the “polyreactivity (PSR sort gate)” value read?
The value was “high polyreactivity”.

For “QVQLVESGGGLVQAGGSLRLSCAASGFILDWYTMGWYRHAPGKEREFVAAITSRGGDTYYADSVKGRFTISRDNAKNTVYLQMNSLTPEDTAVYYCNKGFKLWPRYGYDYWGQGTQVTVSS”, which “polyreactivity (PSR sort gate)” value is on record?
Its value is “low polyreactivity”.

Which “polyreactivity (PSR sort gate)” value does the source give for “QVQLVESGGGLVQAGGSLRLSCAASGFILDYNTMGWYRQAPGKERELVAAISSSGDTTYYADSVKGRFTISRDNAKNTVYLQMNSLKPEDTAVYYCDREYGDGYEYWGQGTQVTVSS” here?
The value was “low polyreactivity”.

For “QVQLVESGGGLVQAGGSLRLSCAASGFILGANAMGWYRQAPGKERELVAAIRSSDGTTYYADSVKGRFTISRDNAKNTVYLQMNSLKPEDTAVYYCAADWRLLYEYWGQGTQVTVSS”, which “polyreactivity (PSR sort gate)” value is on record?
Its value is “high polyreactivity”.

Which “polyreactivity (PSR sort gate)” value does the source give for “QVQLVESGGGLVQAGGSLRLSCAASGFILKPNAMGWYRQAPGKERELVAAISWSSGSTYYADSVKGRFTISRDNAKNTVYLQMNRLKPEDTAVYYCAADYFVYPDDWYDYWGQGTQVTVSS” here?
The value was “low polyreactivity”.

With “QVQLVESGGGLVQAGGSLRLSCAASGFILKYYAMGWYRQAPGKERELVAAISSSGGRTYYADSVKGRFTISRDNAKNTVYLQMNSLKPEDTAVYYCAARVIASRGRYGYWGQGTQVTVSS” as the sequence, how does the “polyreactivity (PSR sort gate)” value read?
The value was “high polyreactivity”.

Which “polyreactivity (PSR sort gate)” value does the source give for “QVQLVESGGGLVQAGGSLRLSCAASGFILLYYAMGWYRQAPVKERELVATITWSDGSTYYADSVKGRFTISRDNAKNTVYLQMNSLKPEDTAVYYCASPYKRYFYKGGDYWGQGTQVTVSS” here?
Its value is “low polyreactivity”.

Which “polyreactivity (PSR sort gate)” value does the source give for “QVQLVESGGGLVQAGGSLRLSCAASGFILNWYAMGWYRQAPGKERELVAAISWTTSDTYYADSVKGRFTISRDNAKNTVYLQMNSLKPEDTAVYYCNAKFYAYYVTFVLHYDYWGQGTQVTVSS” here?
Its value is “low polyreactivity”.

For “QVQLVESGGGLVQAGGSLRLSCAASGFILPIYAMGWYRQAPGKEREFVAAITWTGGSTYYADSVKGRFTISRDTAKNNVFLQIHSLKPEDTAVYYCAKRYYLRGYGRYYYWGQGTQVTVSS”, which “polyreactivity (PSR sort gate)” value is on record?
The value was “high polyreactivity”.

With “QVQLVESGGGLVQAGGSLRLSCAASGFILRYNAMGWYRQAPGKERELVAAISYTGDRTYYADSVKGRFTISRDNAKNTVYLQMNSLKPEDTAVYYCNAVTYGSYYYWGQGTQVTVSS” as the sequence, how does the “polyreactivity (PSR sort gate)” value read?
Its value is “high polyreactivity”.

Which “polyreactivity (PSR sort gate)” value does the source give for “QVQLVESGGGLVQAGGSLRLSCAASGFILSRYAMGWYRPAPGTERELVAAITSSGGSTYYADSVKGRFTISRDNAKNTVYLQMNSLKPEDTAVYYCAADRGRYSYNFWGQGTQVTVSS” here?
The value was “high polyreactivity”.

Which “polyreactivity (PSR sort gate)” value does the source give for “QVQLVESGGGLVQAGGSLRLSCAASGFILTSNAMGWYRQAPGKERELVAAITRNGARTYYADSVKGRFTISRDNAKNTVYLQMNSLKPEDTAVYYCAAETVSYWWWGQDIPYYYWGQGTQVTVSS” here?
Its value is “high polyreactivity”.

With “QVQLVESGGGLVQAGGSLRLSCAASGFILTSYAMGWYRPEPGKERELVAAISSRGGRTYYADSVKGRFTISRDNAKNTVYLQMNSLKPEDTAVYYCNAVVYVVGDFDYWGQGTQVTVSS” as the sequence, how does the “polyreactivity (PSR sort gate)” value read?
The value was “high polyreactivity”.

With “QVQLVESGGGLVQAGGSLRLSCAASGFILTSYAMGWYRQAPGKERELVAAISSRGGRTYYADSVKGRFTISRDNAKNTVYLQMNSLKPEDTAVYFCNAVVYVVGDFDYWGQGTQVTVSS” as the sequence, how does the “polyreactivity (PSR sort gate)” value read?
Its value is “high polyreactivity”.

For “QVQLVESGGGLVQAGGSLRLSCAASGFILVFYAMGWYRQAPGKERELVAAIDWSGTITYYADSVKGRFTISRDNAKKTVYLQINSLKPEDTAVYYCAADGEPFYDFDYWGQRTQVTVSS”, which “polyreactivity (PSR sort gate)” value is on record?
Its value is “high polyreactivity”.

Which “polyreactivity (PSR sort gate)” value does the source give for “QVQLVESGGGLVQAGGSLRLSCAASGFILYQNALGWYRQAPGKERELVAAITESDGITYYADSVKGRFTISRDNAKNTVYLQMNSLKPEDTAVYDCNTGFSYTYDYWGQGTQVTVSS” here?
Its value is “low polyreactivity”.

Which “polyreactivity (PSR sort gate)” value does the source give for “QVQLVESGGGLVQAGGSLRLSCAASGFILYRYAMGWDRQAPGKDRELVAAITRRGGSTYYADSVKGRFTISRDNAKNTVYLQMNSLKPEDTAVYYCNADIGVYGTSDLDYWGQGTQVTLSS” here?
Its value is “high polyreactivity”.

Which “polyreactivity (PSR sort gate)” value does the source give for “QVQLVESGGGLVQAGGSLRLSCAASGFISDDYAMGWYRQAPGKERELVAAISDSGVDTYYADSVKGRFTISRDNAKNTVYLLMNSLKPEDTAVYYCATLTYASNRYGYWGQGTHVTVSS” here?
The value was “low polyreactivity”.
